The values below come from paper PMC5670179, “Folding of a bacterial integral outer membrane protein is initiated in the periplasm” (Nature Communications, 2017).

For orientation: stoichiometry N means a count of units in the complex or per binding partner.

Series [1] addresses His10-UpaGΔ2(Y1735am) (E. coli O6:H1 strain CFT073). Description: SDS-PAGE of unheated (25 °C) against heated (99 °C) samples after Ni-NTA purification; cells radiolabelled, UV irradiated and PK treated; membranes solubilised in 2% DDM, Ni-NTA in 50 mM NaH2PO4 pH 8, 500 mM NaCl, 0.05% DDM; eluate kept at 25 or 99 °C in SDS sample buffer for 5 min.
Series [2] concerns the molecule itself. Put plainly: SDS- and heat-resistant oligomers on SDS-PAGE after pulse-chase labelling and immunoprecipitation; cells grown in M9 minimal medium at 37 °C, pTrc99a derivatives; TCA precipitation, immunoprecipitation with anti-HA or anti-UpaG antiserum, samples heated to 99 °C for 5 min, 8-16% Tris-glycine gels.

Molecule “His10-UpaGΔ2(Y1735am) (from UniProt A0A0H2VCA1 1609-1778) (domain or fragment)” displayed a stoichiometry N in series [1] of 3.

B1: HA-UpaGΔ2 (domain or fragment)
chain: AGVNATDAVNVSQLKSSEAGGVRYDTKADGSIDYSNITLGGGNSGTTRISNVSAGVNNNDAVNYAQLKQSVQETKQYTDQRMVEMDNKLSKTESKLSGGIASAMAMTGLPQAYTPGASMASIGGGTYNGESAVALGVSMVSANGRWVYKLQGSTNSQGEYSAALGAGIQW
notes: UpaG, trimeric autotransporter adhesin of uropathogenic E. coli O6:H1 strain CFT073; the C-terminal 170 residues (passenger-domain fragment 1609-1689 and beta-domain segment 1689-1778) of the 1778 residue full-length protein; Made with the native UpaG signal peptide (residues 1-53) before the HA tag; the signal peptide is meant to be cleaved on export; Two glycines were inserted between signal …
As for B1, the “stoichiometry N” value in series [2] was found to be 3.
